Measured values reported in patent US20040009177A1 (SERVICES, published 2004).

What was measured:
[1] = target: CX3CR1 on naive mouse spleen leukocytes (mouse) (UniProt Q9Z0D9); test: cell-based or functional assay
[2] = target: CX3CR1 on Vero cells (African green monkey); test: cell-based or functional assay
[3] = target: purified recombinant soluble polyhistidine-tagged G glycoprotein (respiratory syncytial virus) (UniProt P03423); test: flow cytometry, GHIS on CX3CR1-293 cells with control antibody (68% without)
[4] = target: T1, CX3CR1 on CX3CR1-transfected human embryonic kidney cells (293-CX3CR1 cells) (UniProt P49238 1-355); test: flow cytometry, G glycoprotein on CX3CR1-293 cells with competitor peptide (84% without)
T1 construct: whole, on cells; also called CX3C receptor; CX3CR1-293 cells
T1 sequence (looked up): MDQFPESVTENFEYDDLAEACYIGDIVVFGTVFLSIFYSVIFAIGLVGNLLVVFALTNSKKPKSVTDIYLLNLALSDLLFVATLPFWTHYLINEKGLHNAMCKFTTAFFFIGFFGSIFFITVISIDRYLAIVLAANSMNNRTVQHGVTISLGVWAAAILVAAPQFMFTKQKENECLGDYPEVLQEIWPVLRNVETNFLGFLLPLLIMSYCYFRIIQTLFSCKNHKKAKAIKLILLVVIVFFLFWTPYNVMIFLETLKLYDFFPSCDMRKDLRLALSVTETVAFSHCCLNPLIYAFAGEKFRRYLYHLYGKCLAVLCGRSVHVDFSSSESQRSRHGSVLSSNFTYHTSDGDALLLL

[5] = target: T1, CX3CR1 on CX3CR1-transfected human …; test: Scatchard analysis; displacement of 1 nM 125I-fractalkine from 293-CX3CR1 cells by unlabeled G glycoprotein, 2 h 37°C with azide; mean±SD of three experiments
[6] = target: T1, CX3CR1 on CX3CR1-transfected human …; test: Scatchard analysis; displacement of 1 nM 125I-fractalkine from 293-CX3CR1 cells by unlabeled Fkn, 2 h 37°C with azide; mean±SD of three experiments
[7] = target: RSV G glycoprotein, purified from RSV/A2-infected Vero cells (respiratory syncytial virus, A2 strain) (UniProt P03423); test: cell-based or functional assay
[8] = target: T2, mouse Fkn (mouse) (UniProt O35188); test: cell-based or functional assay
T2 sequence (looked up): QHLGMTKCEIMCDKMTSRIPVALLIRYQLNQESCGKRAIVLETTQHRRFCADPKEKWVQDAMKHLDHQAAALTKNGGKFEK

[9] = target: purified recombinant soluble polyhistidine-tagged G glycoprotein (respiratory syncytial virus) (UniProt P03423); test: flow cytometry; inhibition of polyhistidine-tagged G glycoprotein binding to 293-CX3CR1 cells
[10] = target: RSV G glycoprotein, purified from RSV/A2-infected Vero cells (respiratory syncytial virus, A2 strain) (UniProt P03423); test: flow cytometry; inhibition of G glycoprotein binding to 293-CX3CR1 cells, in the absence of heparin
[11] = target: purified recombinant soluble polyhistidine-tagged G glycoprotein (respiratory syncytial virus) (UniProt P03423); test: flow cytometry, GHIS on CX3CR1-293 cells with antibody (68% without)
[12] = target: T1, CX3CR1 on CX3CR1-transfected human …; test: inhibition of G glycoprotein binding to CX3CR1, methods described in the examples (no further detail)

Sequence of CX3CR1 on naive mouse spleen leukocytes (mouse) (Q9Z0D9 whole entry): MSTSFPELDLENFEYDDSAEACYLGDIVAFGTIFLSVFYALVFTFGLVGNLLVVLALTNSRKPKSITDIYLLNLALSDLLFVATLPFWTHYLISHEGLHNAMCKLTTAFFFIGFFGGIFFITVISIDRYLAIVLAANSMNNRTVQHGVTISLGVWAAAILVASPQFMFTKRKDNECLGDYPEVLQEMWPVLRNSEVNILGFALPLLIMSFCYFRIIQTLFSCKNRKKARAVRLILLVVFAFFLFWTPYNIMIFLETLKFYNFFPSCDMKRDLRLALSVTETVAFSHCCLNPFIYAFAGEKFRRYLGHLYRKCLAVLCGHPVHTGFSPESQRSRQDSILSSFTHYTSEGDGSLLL

Molecule: mouse Fkn (from UniProt O35188 25-105) (ligand)
- chemotactic index of mouse leukocytes toward G glycoprotein with Fkn as antagonist (chemotactic index) [1]: 1.2
- inhibition of mouse leukocyte chemotaxis toward G glycoprotein by Fkn [1]: 75%

Molecule: normal rabbit sera
- RSV plaque inhibition (%) on Vero cells; Normal rabbit sera (control) [2]: 6%

Molecule: anti-F glycoprotein monoclonal antibody 131-2A
- percent positive staining of GHIS in the presence of the antibody [3]: 60%

B1: G glycoprotein peptide RT33 (peptide)
peptide: TCWAICKRIPNK
notes: synthetic 12-mer with the CX3C motif CWAIC
- percent positive staining of G glycoprotein in the presence of the peptide [4]: 48%

B2: RSV G glycoprotein, purified from RSV/A2-infected Vero cells (ligand, respiratory syncytial virus, A2 strain, UniProt P03423 1-298, looked up)
chain: MSKNKDQRTAKTLERTWDTLNHLLFISSCLYKLNLKSVAQITLSILAMIISTSLIIAAIIFIASANHKVTPTTAIIQDATSQIKNTTPTYLTQNPQLGISPSNPSEITSQITTILASTTPGVKSTLQSTTVKTKNTTTTQTQPSKPTTKQRQNKPPSKPNNDFHFEVFNFVPCSICSNNPTCWAICKRIPNKKPGKKTTTKPTKKPTLKTTKKDPKPQTTKSKEVPTTKPTEEPTINTTKTNIITTLLTSNTTGNPELTSQMETFHSTSSEGNPSPSQVSTTSEYPSQPSSPPNTPRQ
notes: Lectin and Q-Sepharose purified; concentration estimated with a molecular weight of 90 kD; also called attachment protein
- Kd [5]: 2.1 nM

B3: human fractalkine (R&D Diagnostics) (ligand, UniProt P78423 25-100, looked up)
chain: QHHGVTKCNITCSKMTSKIPVALLIHYQQNQASCGKRAIILETRQHRLFCADPKEQWVKDAMQHLDRQAAALTRNG
notes: also called Fkn; human Fkn
- Kd [6]: 5.8 nM

Molecule: TCWACKRIPNK [G glycoprotein peptide ?-1, 11-mer variant of RT33 with a deletion of ILE in the CX3C motif]
- percent positive staining of G glycoprotein in the presence of the peptide [4]: 73%

B4: anti-G glycoprotein monoclonal antibody 131-2G (antibody, from another filing, V domains shown)
VH: EVQLQQSGPELVKPGTSVKISCKASGYSFTGFTMNWVKQSHGKNLEWFGLINPFNGNTGYNQKFKGKATLTVDKSSSTAFMELLSLTSEDSAVYYCARSGKSYDYEAWFTYWGQGTLVTVSA
VL: DIVMTQTTLSLPVSLGNQASISCRSSQTIVHTNGNTYLEWYLQKPGQSPKLLIYKVSNRFSGVPDRFSGSGSGTDFILNISRVEAEDLGVYYCFQGSHVPFTFGSGTKLEIKR
- chemotactic index of mouse leukocytes toward G glycoprotein with anti-G glycoprotein (131-2G) (chemotactic index) [7]: 1.1
- chemotactic index of mouse leukocytes toward Fkn with anti-G glycoprotein (131-2G) (chemotactic index) [8]: 4.8
- percent inhibition [9]: 80 to 88%
- percent inhibition [10]: 32 to 48%
- percent positive staining of GHIS in the presence of the antibody [11]: 10%

B5: G glycoprotein peptide RT34 (peptide)
peptide: NKKPGKKTTTKP
notes: synthetic 12-mer C-terminal to the CX3C motif
- percent positive staining of G glycoprotein in the presence of the peptide [4]: 74%

Molecule: VPCSICSNNPTC (synthetic 12-mer, lacks the CX3C motif) [G glycoprotein peptide RT32]
- percent positive staining of G glycoprotein in the presence of the peptide [4]: 72%

B6: G glycoprotein peptide EYp1, TCAAACKRIPNKK (SEQ ID NO: 5) (peptide)
peptide: TCAAACKRIPNKK
notes: 13-mer variant of RT33 with the motif CAAAC
- percent inhibition [12]: > 90%

Molecule: TCFAACKRIPNKK [peptide TCFAACKRIPNKK (SEQ ID NO: 11)]
- percent inhibition [12]: > 90%

Molecule: TCNAACKRIPNKK [peptide TCNAACKRIPNKK (SEQ ID NO: 7)]
- percent inhibition [12]: > 90%

Molecule: TCWAACKRIPNKK [peptide TCWAACKRIPNKK (SEQ ID NO: 6)]
- percent inhibition [12]: > 90%

Molecule: TCMAACKRIPNKK [peptide TCMAACKRIPNKK (SEQ ID NO: 10)]
- percent inhibition [12]: > 90%

Molecule: TCDAACKRIPNKK [peptide TCDAACKRIPNKK (SEQ ID NO: 8)]
- percent inhibition [12]: > 90%
